Experimental findings from patent US8530235B2, “Medium that supports culture of an oocyte and modulation of granulosa cell apoptosis” (Adelaide Research & Innovation Pty Ltd., priority 2005, dated 2013) are described below.

Assay [1] concerns Smad 3-responsive CAGA-luciferase reporter. Put plainly: Smad 3-responsive CAGA-luciferase reporter in mural granulosa cells from large antral follicles. The class given is cell-based, marmoset monkey, Callithrix jacchus. Conditions: 48 h; 0.5 ng/ml TGFβ1, 88-265 ng/ml GDF9, 50 ng/ml BMP7 or 60 mouse oocytes. The method, then: FIGS. 18A and 18B show the activation of the TGF-β signalling pathway by GDF9 and oocytes. MGC from large follicles were transiently transfected with either a Smad 3-responsive CAGA-luciferase reporter construct (A) or a Smad 1-responsive BRE-luciferase reporter construct (B). Cells were subsequently left untreated, treated with 0.5 ng/ml TGFβ1, 88-265 ng/ml GDF9, 50 ng/ml BMP7 or co-cultured with 60 mouse oocytes. Cells were cultured for 48 h after which time luciferase activity was measured from cell extracts. Bars represent means+/− SEM from 3 replicate experiments expressed as a fold change relative to control.
Luciferase reporter constructs responsive to specific phosphorylated Smads were used to detect the activation of mural GC Smad proteins by recombinant GDF9 Mural GCs were collected and processed as described above, except cells were given a final wash in DMEM(MP Biomedicals, Seven Hills, Australia)+2% FCS (Trace Biosciences, Castle Hill, Australia). Following the final wash, cells were transferred to individual wells of a 96-well plate (Falcon) and cultured at 1.6×10^5 cells/ml. After 4 hours of culture, cells were transiently transfected with 50 ng of luciferase reporter construct DNA using Fugene 6 (Roche Diagnostics, Castle Hill, Australia). 18 hours after transfection, medium was aspirated from cells and replaced with DMEM supplemented with 0.1% FCS. Various ligands were added to cells at this point (see below) and the culture period extended for a further 48 hours. Experiments were terminated by removing media from wells and freezing plates at −20° C. […]
Seven adult female marmosets were primed with […] for 6 days, whole ovaries were removed on day 7, follicles manually excised, and GC were then collected from 3 size classes: periantral (PA; 0.42-0.66 mm), small antral (SA; 0.66-1.5 mm) and large antral (LA; >1.5 mm). […] In order to determine the effects of GDF9 on marmoset GC proliferation, we employed a GC bioassay whereby after 24 h ^3H-thymidine incorporation is assessed as an indicator of DNA synthesis and cellular proliferation. […]

Assay [2] relates to cumulus-oocyte complexes. The experiment in a line: Study II: oocyte developmental competence after IVM, IVF and embryo culture (cleavage, blastocyst). In kind it is cell-based, Bovine. As to the method: Bovine ovaries were collected from local abattoirs and transported to the laboratory in warm saline (30-35° C.). Cumulus-oocyte complexes (COC) were aspirated from antral follicles (2 to 8 mm diameter) using an 18-gauge needle and a 10-ml syringe containing ˜2 ml aspiration media (Hepes-buffered Tissue Cultured Medium-199; TCM-199, ICN Biochemicals, Irvine, Calif., USA) supplemented with 50 μg/ml kanamycin, 0.5 mM sodium pyruvate, 50 μg/ml heparin and 4 mg/ml fatty acid-free bovine serum albumin (FAF-BSA; ICPbio Ltd, Aukland, NZ). Intact COC with compact cumulus vestments greater than five cell layers and evenly pigmented cytoplasm were selected under a dissecting microscope and washed twice in Hepes-buffered TCM-199 and once in Hepes-TCM199 supplemented with 10% fetal calf serum (FCS) (Invitrogen, Carlsbad, Calif.). Base media for oocyte maturation was Bovine VitroMat (Cook Australia, Eight Mile Plain, Qld, Australia), and is a medium based on the ionic composition of bovine follicular fluid and also containing 100 μm glycylglutamine (Glutamax; Gibco Invitrogen, Carlsbad, Calif., USA), 100 μm N-acetyl-1-cysteine, 100 μm 2-mercaptoethylamine, 1% v/v non-essential amino acids (100×; Gibco Invitrogen), 2% v/v essential amino acids (50×; Gibco Invitrogen), 4 mg mL-1 fatty acid-free BSA and 5.6 mm glucose. […] (Puregon, Organon, Oss, Netherlands). Complexes were cultured pre-equilibrated […] drops overlaid with mineral oil and incubated at 39° C. with 5% CO2 in humidified air for 24 hour. […]
Recombinant mouse GDF-9 and recombinant ovine BMP-15 were produced in-house as previously described (Kaivo-Oja et al. (2003) J. Clin. Endocrinol Metab 88:755-762; McNatty et al. (2005) Reproduction 129:473-480) using transfected 293 human embryonic kidney cell lines (293H). Recombinant proteins were partially purified using hydrophobic interaction chromatography (HIC), as recently described (Hickey et al., (2005) Biol Reprod on line), and their concentrations were then estimated by Western blot (Kaivo-Oja et al., 2003 3) J. Clin. Endocrinol Metab 88:755-762). Control conditioned medium (293H) was also produced from untransfected 293H cells and purified by HIC.
All experiments were carried out using frozen semen from the same bull of proven fertility. Briefly, one straw of semen stored in liquid nitrogen was rapidly thawed in a water bath for one minute. The semen sample was layered on top of a discontinuous (45%:90%) Percoll gradient (Amersham Bioscience) and centrifuged at room temperature for 20-25 mins at 700 g. The supernatant was removed and the sperm pellet was washed with […] Bovine Vitro Wash (Cook Australia, Eight Mile Plains, Qld, Australia) and centrifuged for a further 5 minutes at 200 g. spermatozoa were resuspended with TVF medium (Bovine Vitro Fert, Cook Australia), then added to the fertilization media drops (Bovine Vitro Fert, Cook Australia, supplemented with 0.01 mM heparin, 0.2 mM penicillamine and […] hypotaurine) at a final concentration of 1×10^6 spermatozoa/ml. COCs were inseminated at a media density of […] of IVF medium per COCs for 24 h, at 39° C. in 6% CO2 in humidified air.
Cumulus cells were removed by gentle pipetting 23-24 h post insemination and five presumptive zygotes were transferred into 20 μl drops of pre-equilibrated Cook Bovine Cleave medium (modified SOFaa, Cook Australia) and cultured under mineral oil at 38.5° C. in 7% O2, 6% CO2, balance N2, for five days (day 1 to day 5).
On Day 5, embryos were transferred in groups of […] drops of pre-equilibrated Bovine Vitro Blast (Cook Bovine Blast medium; Cook Australia) at 38.5° C. overlaid with mineral oil and cultured to Day 8. Embryos were assessed for quality at Day 8 according to the definitions presented in the Manual of the International Embryo Transfer Society and were performed independently and blinded by an experienced bovine embryologist. […]

[3] abbreviates: 1st REP, COC IVM 24 h, 175 ng/ml GDF-9, 10% BMP-15, 10% 293H.

B1: GDF-9: Recombinant mouse GDF-9 produced in-house in transfected 293H cells, partially purified by HIC (protein, UniProt Q07105 307-441, looked up)
Growth/differentiation factor …: GQKAIRSEAKGPLLTASFNLSEYFKQFLFPQNECELHDFRLSFSQLKWDNWIVAPHRYNPRYCKGDCPRAVRHRYGSPVHTMVQNIIYEKLDPSVPRPSCVPGKYSPLSVLTIEPDGSIAYKEYEDMIATRCTCR
As for B1, in assay [1], the “CAGA-luciferase activity above control levels” value came out at 5 fold. Besides, the “BLACTOCYST RATE” value was determined as 50% in assay [2] (setting [3]); 58% in assay [2] (2nd REP); 35% in assay [2] (3rd REP); 36% in assay [2] (4th REP); 45% in assay [2] (AVERAGE, control COC 41.5%). The “CLEAVAGE RATE” value in assay [2] (setting [3]) is reported as 88%; in assay [2] (2nd REP), 92%; in assay [2] (3rd REP), 84%; in assay [2] (4th REP), 83%; in assay [2] (AVERAGE, control COC 84%), 87%.

B2: BMP-15: Recombinant ovine BMP-15 produced in-house in transfected 293H cells, partially purified by hydrophobic interaction chromatography; dosed as % v/v (protein, UniProt Q9MZE2 269-393, looked up)
Bone morphogenetic protein 15: QAGSIASEVPGPSREHDGPESNQCSLHPFQVSFQQLGWDHWIIAPHLYTPNYCKGVCPRVLHYGLNSPNHAIIQNLVSELVDQNVPQPSCVPYKYVPISILLIEANGSILYKEYEGMIAQSCTCR
As for B2, the “BLACTOCYST RATE” value in assay [2] (setting [3]) amounted to 58%; in assay [2] (2nd REP) it was 63%; in assay [2] (3rd REP), 50%; in assay [2] (4th REP), 50%; in assay [2] (AVERAGE, control COC 41.5%) it was 55%. The “CLEAVAGE RATE” value in assay [2] (setting [3]) amounted to 76%; in assay [2] (2nd REP), 90%; in assay [2] (3rd REP) it was 80%; in assay [2] (4th REP), 85%; in assay [2] (AVERAGE, control COC 84%), 83%. The “number of oocytes that reached the blastocyst stage post insemination” value in assay [2] (alone or in combination with GDF9, compared with GDF-9 alone or no supplement) is “more effective”.
